{
  "source": "patent US20160083449A1",
  "about": "(FRED HUTCHINSON CANCER RESEARCH CENTER, published 2016)",
  "key": {"[1]": {"target": "T1, WT-1^126-134 peptide/MHC tetramer (…, SEQ ID NO.:16, with HLA-A2), PE-conjugated (human)", "T1 construct": "Tetramer reagent used for staining of T cells; the source and the construct of the HLA-A2 monomers are not described; also called WT1 tetramers; WT-1 tetramer", "test": "flow cytometry of transduced PBMCs; share of tetramer-positive cells within the transduced population (Vβ+ cells minus the endogenous Vβ+ cells of the untransduced control); drawn table"}, "[2]": {"target": "T2, Wilms tumor protein 1 (WT-1) peptide on HLA-A*02:01 (human)", "T2 peptide": "RMFPNAPYL", "test": "Kd or kinetics"}},
  "data": [
    {"binder": "TCRP20, WT-1^126-134-specific TCR of T cell clone P20 (TCR, V domains shown, Engineered cysteine pair (alpha T179C, beta S185C, precursor numbering) gives an extra interchain disulfide., On the T cell clone) V domain 1: QKEVEQNSGPLSVPEGAIASLNCTYSDRGSQSFFWYRQYSGKSPELIMSIYSNGDKEDGRFTAQLNKASQYVSLLIRDSQPSDSATYLCAVLEGQKLLFARGTMLKVDL V domain 2: DVKVTQSSRYLVKRTGEKVFLECVQDMDHENMFWYRQDPGLGLRLIYFSYDVKMKEKGDIPEGYSVSREKKERFSLILESASTNQTSMYLCATSHQPQHFGDGTRLSILE", "values": [
      {"measurement": "% transduced Vβ+ tet+", "setting": "[1]", "value": 51.2, "unit": "%"}
    ]},
    {"binder": "P1 TCR (TCRP1) (TCR, V domains shown) Valpha: AQKVTQAQTEISVVEKEDVTLDCVYETRDTTYYLFWYKQPPSGELVFLIRRNSFDEQNEISGRYSWNFQKSTSSFNFTITASQVVDSAVYFCALSEAHRDSNYQLIWGAGTKLIIKP Vbeta: ETGVTQTPRHLVMGMTNKKSLKCEQHLGHNAMYWYKQSAKKPLELMFVYNFKEQTENNSVPSRFSPECPNSSHLFLHLHTLQPEDSALYLCASSQDEQFLYNEQFFGPGTRLTVL", "values": [
      {"measurement": "binding result", "setting": "[2]", "value": "recognises"}
    ]},
    {"binder": "P20 TCR (TCRP20) (TCR, V domains shown) Valpha: QKEVEQNSGPLSVPEGAIASLNCTYSDRGSQSFFWYRQYSGKSPELIMSIYSNGDKEDGRFTAQLNKASQYVSLLIRDSQPSDSATYLCAVLEGQKLLFARGTMLKVDL Vbeta: DVKVTQSSRYLVKRTGEKVFLECVQDMDHENMFWYRQDPGLGLRLIYFSYDVKMKEKGDIPEGYSVSREKKERFSLILESASTNQTSMYLCATSHQPQHFGDGTRLSIL", "values": [
      {"measurement": "binding result", "setting": "[2]", "value": "recognises"}
    ]}
  ]
}
